Assay: soluble fraction after stress (log2 fold change); higher = more stays soluble; pooled small domains, quantitative proteomics
Conditions: stress: pH 4
Summary of the method: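 Pooled custom libraries of small protein domains were stressed at pH 4 and then measured by high-throughput quantitative proteomics. The fold change in the amount of each domain that stays soluble after the acid stress serves as a measure of aggregation propensity. Fold changes are given on a log2 scale, and higher values mean more of the domain stayed soluble.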

Row | Sequence | soluble fraction (log2)
1 | HMFYNSSDNAYKILEINKSATVDEIKAAYRKMAKKYHPDKVIHLGQEHQKGAEEKFRQVQEAYEELQKERG | 0.297
2 | HMGAAVEVISLRYRSAAELLPIVRSLLSTEGKISADERTNSLIIVDSDEAVARVIHSLATLDT | -0.851
3 | HMGADGIPGKNGENGETSYVHFAYATSADGKTGFSTTDTVGKTYMGQYADFEKADSEDPTKYRWGKFQGP | ≥ 0.43
4 | HMGAFAIHTASELSAGMRIRHERFGPGVITGIDTANPASGARIQVDFDNGTSKTLLLSYAKFQI | 0.22
5 | HMGAGKVVDGVTYDFVFDVDVADGQPPLRLPYNRGEDVYQAAERFILRNELPATYREQIVNFIVQNTPG | -1.79
6 | HMGAISGEQREFYTVFRGHLNSHVGEFKVEDIENLLMKAKTEVPDLLEEEFLKMGEAILNRYRN | -0.966
7 | HMGAKEHLAGETLRMAVELLSEKQGIPAEQALIRFISSPVYDALYDLDTGMWTQGPTRLLEAFEALE | -1.69
8 | HMGALARLLASVEQELGVTRDRMTRTQKQEAVTLLNEWGAFTLRKSVEDVAEALGVSRFTVYNYLERAEA | -0.866
9 | HMGALSLDMLFDRFDALQEQSMGDKTEGGQELRGMIRTFIEQEKLDIRVTRTTTNAALLEMIEKEMQG | 0.0204
10 | HMGASALTEREREVLRLLEGGGSDKRIARQLAISEHGVRYHLKSIYKKLGVHDRVSAIAAGRRLAS | ≥ 0.43
11 | HMGASTQLVEIKNAYENGEWQNVIDLAGKLHEKYNGSEEDKEAQEMAKNSQSKLDEAAAAKAAEEA | 0.184
12 | HMGASYSQFLDQVDSGNVQKVAFGGDMRGGTSQLTYTTRGGQSSTITAPFDRDLINVLRTKNVEIVQEEP | 0.0587
13 | HMGATFITSSKDNAINIRQAAGTDSKVIETIKNGHILESSEKSGEWYKVTYYDSDIKKTFTGYIHNSQLK | -0.162
14 | HMGAVQFAEQKIHIGSRWIGKKISEFSAESDAFVILIKRGSEVVIPRGPTDIVENDVLVIHVPD | -1.8
15 | HMGAVVSPMPGVILDIKVKEGDSVSEGQTVIILEAMKMENEIVSEFTGTVSAIRVKKGDTVDTDAVLVEI | -1.04
16 | HMGAYPENSLLKERGQSAVYLIQENRKRLFFNAEAFLINGYNWKDIQVVDDLSKILTGKVIYAK | -1.48
17 | HMGDAATVFRDHYNINSAAQAQAALDRKEALWEQPNPWRDSDNREVFDWAAQTVKDRFDSGKYKPK | -0.107
18 | HMGDDVRKNILDVLSKFERVDITDLDSLELVRFYLEIEDIFDIEIKENDFYRLKSVDSIVDYIRNKSFF | -1.64
19 | HMGDIQFMEYRINHSSGWIGKNISDFAAVSKNLVILIKRGQDVVIPRGPTAIMEDDVLVLHA | -1.15
20 | HMGDITALMPGKVIQIIVKEGQEIKVGDPLIVIESMKMENTISSEVNGTIKSINIQIDDNVQFDQVLFTV | -1.03
21 | HMGDITIPDLQGMSFDQAREKLKALGLSIGKISYTSDTSKDDGVVISQGLQAGGKASKGATVDITINET | -0.177
22 | HMGDLEEAVKDFSEAIRLNDSWAEAYANRAVVYAEQGDAAQSDQDAEKARLLGVDQNRLNEMLNAVNS | -0.21
23 | HMGDLKALMPGKVTQVLVSGGQKVKVGEPVLLMESMKMEQTIVATKDGDISEILVSEGDTVEVGKIMIKI | 0.0925

Row | Sequence | soluble fraction (log2)
24 | HMGDLTVPDLSGLTVDQAKQRLKDMGLVLGKITTQEDSSKPDGVIISQSPSADGKINKGQLVDVVVNKLS | 0.206
25 | HMGDTHKVPGVKGVNVEQAMDMLSRLDLKAVVIDSVYVKDKKLGTVIEQNPVEGSVVKPGRPIYLVVNSRS | -0.0241
26 | HMGDTISVPAVRTLAYNKAMDILNAEGLKGIVADSVYDNHTAPGTVIEQNPKAGTIVKEGREVFLTIHA | -0.0483
27 | HMGDWITGTVTRIADNGWGTFQPENAHNTVSIPPKMVADNQLKEADSIKIIAEPSPDGTKTFIKAISRE | 0.214
28 | HMGEDSEPVQVPDVTGQPLWEARRTLSSMGLKVLDDGGSGSVTAQMPSAGATLRNGGQMMLYTYDEALPE | 0.033
29 | HMGEEIRTWTDAQGRKIEARMSMLDGDQVLLELKDGRKIPYPLAKLSADDAHYARHFASASASD | -0.00959
30 | HMGEFVQLKNRTGSVIEAKILNYQNGKVKLQRKDGVIFVVPISIFDRMSSSIIENKAKEMDSF | 0.255
31 | HMGEIHAQIPGLVSHLFVKEGNTVQVEQKLFILEAMKMENEIDSPIQGTVKRIHIATGSKVEKGDLIMEIS | -0.117
32 | HMGEKFTFGQIAKAKAYAKTYANDMTSAVKNIEAIATGLSKHPEVADTLKKANENQELNRITKLAG | 0.369
33 | HMGEKPTEITLSNAISVQELAEKLYVSETDIIRTLFLDGIIVNINQVLDLETAVKVGDQLGVTITIVE | -1.8
34 | HMGEKTVPNVIGQKLATAKQLLEKEGLTVGSTSYNKNQADKDTVLSTDPAPGSHLSEGAKVNLTLSSGA | 0.0205
35 | HMGEKVIAVSGGFDPIHVGHLRMMQDAAQHGRLVVIVNSDEWLLKKKGYVFMPWEERAELIGAYDFVDE | -0.6
36 | HMGELDPKIIAQINTFLQGITKLIEHPGNKDAKKTALGALHKLTFDQNITANFGKQLGQLDQVIQSSEET | -0.127
37 | HMGELGPGSRGQAVRALQERLMALGFPLARFGADGIFGRETTGALRAFQHVAGLSPTGLGDHETLKWLGII | -0.351
38 | HMGELTNALATLSERERDVARLVAQGLDNRQIAAQLFLSEGTVRNRISDILDKLALTNRTQLAIAWLHAE | -0.615
39 | HMGEPTLTIRVVSYNPQSGEMVVVARDPLSGRYALATLNVRTGAGQMIGPQGELLPIENFALGS | -0.692
40 | HMGEQVAVPDVTKKSVREVNNILTSAGLRLQIEGSGISVRQDPPADTMVAPDTVVTVSFEPP | -0.0261
41 | HMGEQVFSRKDLAINGNDLKAVFGWPPGPKYREALDQLFHWVLEDPARNRRETLLAYLHSLYD | -0.774
42 | HMGESEKTLELVSQKDALVDEAFFFVRFQALLESNKTKGAQDLLDQSNHLSAAKLLQANAYLDIV | 0.038
43 | HMGESFEELAREISDDTGSKTEGGETGLFPRGVMAPQFEEAAFLLKVGDISEPIRTKFGYHIIKLKEIKP | -0.0823
44 | HMGESVVVPDLRGKTLEEARAILKKVDLDYEINDSTYSKTAVPGTIRDIVPAPGSHVKAGRILFVSING | 0.0395
45 | HMGETISVPAVRSLAYDRAVDMLTAEGLKGIVADSVYDNRTQPGTVIEQNPKAGTIVKEGREVYLTINA | 0.0278
46 | HMGFAPEAAREEVAQLIGQRGRAVTVLRPSGQVEIAGRRFEATVEVGAVDAGDTIVVRGQTAFALLVEKAD | 0.0812

Row | Sequence | soluble fraction (log2)
47 | HMGFKLQRYTTFVVERLKKYQDTPAAQMHDLLKEHYPDFPAVSPKTVYNYVMKIRQEHGLPAV | ≥ 0.43
48 | HMGFSERLAQAMSHAGYTQGGLAKAVGMAQSSVNKLLNNANSSRKTVEIASVLGVRPEWLSTGEGDML | 0.188
49 | HMGFSKGKRDLIRMIKLAIRELADDNGRAQIEDVITRLVQEGHSRDEIRLQIDMFLRQGEAMEPKQGIIKL | -0.891
50 | HMGFSLEQFGTDPDLKKIVENAFERIITASEGRIFKSDFSSNNSALPLEIFSFLIAVILLKLSGMN | -0.489
51 | HMGFVATRSRKFLPFSEARAITRGLGFSNQKDYKEWIKGNGNELLLPFNPWRTYGDSGWKGWKDFLGTDKA | 0.0101
52 | HMGFYDLFINLADKVGSLADVTQILAEARINLVNVHILEIREEIDGIAQLTFSSEKDRQKALELLKTKYK | -1.52
53 | HMGGDFVEHLKDLASEAPVIRLVNTIIGRVIDLRASDIHLEPFDDGLHVRYRVDGVIHPGELVPPRLS | -0.249
54 | HMGGEGQIEIREREGIPAEAWVDGVMRGQTPLRVEHVSIGTRRVELRAEGRPPVAADVLVRPTVTALVELS | -0.192
55 | HMGGEHPIPEDWAVNEANYEHGAKFYGYTRAHVDAEAQAFRDQYAANGKKYVDWDAHFRTFMRWQNERRYG | -0.416
56 | HMGGEPVSARVPDTLHGARLDATAAALFPDFSRSRLAEWIKAGRLRRNDQPAKPRDKVAVDDHLLLIPEY | -0.431
57 | HMGGFSVTAEAFDGTPEVGKTVGFTAGSTKIKVEDTKGDATFGTILEKETVGFGEGKYTYFYIGL | -0.276
58 | HMGGKAITGGEGEIIIRADKAETVAIYGIDGRLVHRVSTEAGDTKRVSVPAGIYIVKGAKVVV | 0.42
59 | HMGGKTAVVTGSLVNVRKGPGTGNALVGQVARGDELPVLGQDGDWYQIKLANGSNGWVAGWLVSLKDAVP | -0.112
60 | HMGGLIDQSIQEIIDKYSVPGKKIQKAQRLKIVAEMHTKGIFKMRGGVQQAAQALGVTRYTVYNDLEVMN | -0.259
61 | HMGGLLSVIQKKAINNVKDRYSENAIKSMTKVQLHDLIKAETSRLLDPANAKETPEYQAFLEE | 0.116
62 | HMGGLSAEQKNGIQSVLKNFDPKNLTSADAKSITSEFKKLGVQPGKDLETTMAASGFDAKEVGRLAF | 0.177
63 | HMGGPRDVPYSTFLIEVEKGQVAEVTIQDHKITGTYKNSNEPFITNAPDDPDLVSRLIKYGVGVQAKPPE | 0.0182
64 | HMGGREEAGTDIARLLGYINDIHGEELIAKLEYYQKMLGSENFAVLMSRLPDGQKKELREQNLYSEYV | -0.298
65 | HMGGRRHANMSREEEAAFLAPFFEKAAQGGILVVREIRQALDAHLGRTVPLSTVYNLLHRHNWRKL | 0.379
66 | HMGGRTITVGISENMTVKDIAQMLEEKGLIEDARLFVVQELLSAYHKEIKPGIYDLSTDMTAAQMLEIMS | -1.32
67 | HMGGSIDITTAPPGAKIYLDADYYGKTPKRLENISAGTYRLHLLHPEKGEVYRSVTLNEKNGTLKIDENLN | 0.0705
68 | HMGGTATDYYNQGRTAYDVGDYNGALMNFQEAVRLDPRYGEAYYGLGKAYEALNMQNQALDAYLSAI | -1.46
